T1: BaDH (Aromatoleum aromaticum, UniProt Q5P459)
T1 construct: gene adh; recombinant, expressed in E. coli BL21(DE3), purified; details in supplement
T1 sequence (Q5P459 1-362): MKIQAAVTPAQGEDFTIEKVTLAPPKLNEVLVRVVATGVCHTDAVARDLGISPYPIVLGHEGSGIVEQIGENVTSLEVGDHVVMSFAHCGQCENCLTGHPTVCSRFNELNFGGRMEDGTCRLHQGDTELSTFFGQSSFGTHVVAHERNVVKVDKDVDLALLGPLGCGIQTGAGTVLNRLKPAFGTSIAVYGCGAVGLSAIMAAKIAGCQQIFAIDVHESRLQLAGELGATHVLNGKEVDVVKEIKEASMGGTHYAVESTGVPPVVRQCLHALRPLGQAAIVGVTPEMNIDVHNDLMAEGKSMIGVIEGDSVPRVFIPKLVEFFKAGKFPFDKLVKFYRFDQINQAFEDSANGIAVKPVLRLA

B1: AORAa (Aromatoleum aromaticum EbN1) (protein)
chain 1: MGWNRKVLRVNLAEGTCTPEPLNMQWADEYLGSRGLATKYLVSETDPKVDPLSPDNKMIMATGPLTGTMASTGGRYTVVTKGPLTGAIACSNSGGFFGAEMKFAGWDMVIFEGRSPTPVYLFIENERAELRDASYLWGRSCWETEESIRAQHQDPLIRVSSIGRAGENQVMFACIVNDLHRAAGRSGVGAVMGSKNLKAVAIRGTKGVSGIRDFPGFVRATSEAKKVLAGNPVTSEGLPKFGTQVLMNVINEMGALPTRNHRDVQFEDASKISAEAMHEKRPSDGKPQLVTNAACFGCTIACGRISAIDKTHFTVKNNPKYWGASGGLEYEAAWALGAANGVGDLEALQYANLLCNEQGMDPISFGATVGAAMELYETGVLTKERIGLDAPFGSADALAKLAEMTATGEGFGKEIGLGSKRLCEKYGHPELSMSVKGQEFPAYDSRGIQGMGLAYATSNRGACHLRGYTVASEVLGVPVKTDPHVIEGKAELVKAFQDATAVFDSAGICVFTSFAWTLADVQPQIAAACDGDWSMDKLATVGERIWNMERQFNNAAGLGAQDDNLPPRLTSEPAKSGPAKGMVNRLAEMLPEYYGVRGWTPEGTPTPETLSRLGLS
chain 2: MKHVILGNGPAGVIAAETLRRAAPTDDILLFGSEDAPPYSRMAIPYLLEGNIDESGTWLRKSPGHFDRLRIHEMRGRAVSLDSERRRILFDDGHFESWDRLLIATGSHPVRPPIPGIDLPEVQTCWTLEDARAIARFATPGARVLQLGAGFIGCIIMEALAARGVELTVVEMGDRMVPRMMTPTAGGMIRKWVEDQGVRVVTNAGVSRIDCRASNDAPLDVTLSTGEVVVADLVIVAAGVAPNIAFLEATPVHVAKGVLVDDRLQTSVPGIFAAGDVAEAPDLFTGAHLVAAIQPNAADQARVAALNMAGHEARLKGVLAINVLDTLGLISSSFGQWWGEERERGGAGVEHVDEAAYRYLSLQFKDDVLIGATSIGLTEHVGALRGLIHGRVRLGEWKERLLHSPLQFVDAYIARSQQPMALVR
notes: full-length AorABC, N-terminal Twin-Strep-tag on AorA, co-expressed with AorDE in Aromatoleum evansii; (alpha-beta)2-gamma complex, 218 kDa; with Aldehyde oxidoreductase polyferredoxin (iron-sulfur) subunit alpha

Legend:
BaDH = biological target: T1, BaDH; experiment: coupled assay with AORAa, NADPH at […] nm and HPLC of benzyl alcohol; type: biochemical; settings: 100 mM citric buffer pH 5.5, 30 °C, benzaldehyde formed in situ by AORAa
purified protein [1] = substrate: NC(=O)c1ccc[n+]([C@@H]2O[C@H](COP(=O)(O)OP(=O)(O)OC[C@H]3O[C@@H](n4cnc5c(N)ncnc54)[C@H](O)[C@@H]3O)[C@@H](O)[C@H]2O)c1; experiment: purified protein; type: biochemical, Aromatoleum aromaticum; settings: 2.5% H2 as electron donor, 100 mM Tris/HCl pH 8.0, 30 °C, anaerobic, FAD gamma-subunit site expected
purified protein [2] = substrate: O=C(O)c1ccccc1; experiment: purified protein; type: biochemical, Aromatoleum aromaticum; settings: 2.5% H2 as electron donor, 0.6 mM NADPH, 100 mM citric buffer pH 5.5, 30 °C, W-cofactor beta-subunit site
[3] = substrate: O=Cc1ccccc1; experiment: steady-state kinetics, initial rates of benzaldehyde oxidation with NAD+; type: biochemical, Aromatoleum aromaticum; settings: 1 mM NAD+, Tris/HCl pH 8.0, 30 °C, aerobic, W-cofactor beta-subunit site
From the text: steady-state kinetics, initial rates of benzaldehyde oxidation with NAD+ on AORAa

| Molecule | coupled assay with AORAa, NADPH at 365 nm and HPLC of benzyl alcohol (BaDH) | Km (purified protein [1]) [µM] | Vmax (purified protein [1]) [µmol/min/mg] | kcat (purified protein [1]) [s⁻¹] | kcat/Km (purified protein [1]) [M⁻¹ s⁻¹] | Km (purified protein [2]) [µM] | kcat (purified protein [2]) [s⁻¹] | Km [3] [µM] | Vmax [3] [µmol/min/mg] | kcat [3] [s⁻¹] | kcat/Km [3] [M⁻¹ s⁻¹] |
| --- | --- | --- | --- | --- | --- | --- | --- | --- | --- | --- | --- |
| O=Cc1ccccc1 [benzaldehyde] | it also catalyzed the reduction of benzaldehyde with either NADH or NADPH |  |  |  |  |  |  |  |  |  |  |
| NC(=O)C1=CN([C@@H]2O[C@H](COP(=O)(O)OP(=O)(O)OC[C@H]3O[C@@H](n4cnc5c(N)ncnc54)[C@H](OP(=O)(O)O)[C@@H]3O)[C@@H](O)[C@H]2O)C=CC1 [NADPH] | confirming that NADPH was only turned over by BaDH, not by AORAa |  |  |  |  |  |  |  |  |  |  |
| B1 |  | 21.7 ± 2.7 | 3.7 | 13.4 | 600000 | 33700 | 1.4 | 39.3 ± 6.6 | 33.8 | 123 | 3.1e+06 |
